# Like-named read-outs stand apart in the source and are kept apart here.
# T1: mouse CCR8 (mouse)
# T1 chain: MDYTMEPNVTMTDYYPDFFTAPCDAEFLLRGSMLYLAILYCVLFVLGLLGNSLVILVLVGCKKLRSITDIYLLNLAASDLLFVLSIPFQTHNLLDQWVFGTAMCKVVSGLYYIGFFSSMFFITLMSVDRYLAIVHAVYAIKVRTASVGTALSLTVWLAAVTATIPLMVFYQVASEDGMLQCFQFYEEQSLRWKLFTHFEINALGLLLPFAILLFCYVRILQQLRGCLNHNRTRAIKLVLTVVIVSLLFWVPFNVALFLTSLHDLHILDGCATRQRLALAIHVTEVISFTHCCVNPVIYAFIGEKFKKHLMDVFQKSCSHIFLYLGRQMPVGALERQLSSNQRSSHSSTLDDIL
# B1: 11F8-SG-11F8-SG (antibody, V domains shown)
# VH: QVQLVESGGGVVQPGRSLRLSCAASGFTFSTYVMHWVRQAPGKGLEWVAVISYSGNNKYYADSVKGRFIISRDNSKNTLFLQMNSLRGEDTAVYYCARGRSYVNYYGLDVWGQGTTVTVSS
# VL: DIVMTQTPLSLSVTPGQPASISCKSSQSLLYSSGKTYLYWYLQKPGQPPHLLIYEVSNRFSGVPKRFSGSGSGTDFTLKISRVEAEDVGVYYCMQSVKIPLTFGGGTKVEIK
# B2: 11B12-11F8 (antibody, V domains shown)
# VH: QVQLVESGGGVVQPGRSLRLSCAASGFSFSSYVMHWVRQAPGKGLEWVAVISYDGSDKYYADSVKGRFTISRDNSKNTLFLQMNSLRPEDTAVYYCARGRGYRYGQSYYYGMDVWGQGTTVTVSS
# VL: DIVMTQTPLSLSVTPGQPASISCKSSQSLLYSDGKTYLYWYLQKPGQPPHLLIYEVSNRFSGVPKRFSGSGSGTDFTLKISRVEAEDVGVYYCMQSVKIPLTFGGGTKVEIK
# B3: 11B12-DNA-11B12 (antibody, V domains shown)
# VH: QVQLVESGGGVVQPGRSLRLSCAASGFSFSSYVMHWVRQAPGKGLEWVAVISYDGSDKYYADSVKGRFTISRDNAKNTLFLQMNSLRPEDTAVYYCARGRGYRYGQSYYYGMDVWGQGTTVTVSS
# VL: DIVMTQTPLSLSVTPGQPASISCKSSQSLLYSDGKTYLYWYLQKPGQPPQILIFEVSNRFSGVPDRFSGSGSGTDFTLKISRVEAEDVGVYYCMQSIKLPLTFGGGTKVEIK
# B4: 11F5-SG-11F5-SG (antibody, V domains shown)
# VH: EVQLVESGGGVVQPGRSLRLSCAASGFTFSSYVVHWVRQAPGKGLEWVAVISYSGDNKFYADSVKGRFTISRDNSKNTLYLQMNSLRTEDTAVYYCARGRNYYYYYGLDVWGQGTTVTVSS
# VL: DIVMTQTPLSLSVTPGQPASISCKSSQSLLYSSGKTYLYWYLQKAGQPPQLLIYEVSNRFSGVPDRFSGSGSGTDFTLKISRVEAEDVGVFYCMQSLKVPPTFGQGTKVDIK
# B5: 11B12-SG-11F8 (antibody, V domains shown)
# VH: QVQLVESGGGVVQPGRSLRLSCAASGFSFSSYVMHWVRQAPGKGLEWVAVISYSGSDKYYADSVKGRFTISRDNSKNTLFLQMNSLRPEDTAVYYCARGRGYRYGQSYYYGMDVWGQGTTVTVSS
# VL: DIVMTQTPLSLSVTPGQPASISCKSSQSLLYSDGKTYLYWYLQKPGQPPHLLIYEVSNRFSGVPKRFSGSGSGTDFTLKISRVEAEDVGVYYCMQSVKIPLTFGGGTKVEIK
# B6: 11B12-SG-11F8-SG (antibody, V domains shown)
# VH: QVQLVESGGGVVQPGRSLRLSCAASGFSFSSYVMHWVRQAPGKGLEWVAVISYSGSDKYYADSVKGRFTISRDNSKNTLFLQMNSLRPEDTAVYYCARGRGYRYGQSYYYGMDVWGQGTTVTVSS
# VL: DIVMTQTPLSLSVTPGQPASISCKSSQSLLYSSGKTYLYWYLQKPGQPPHLLIYEVSNRFSGVPKRFSGSGSGTDFTLKISRVEAEDVGVYYCMQSVKIPLTFGGGTKVEIK
# B7: 11F5-11B12 (antibody, V domains shown)
# VH: EVQLVESGGGVVQPGRSLRLSCAASGFTFSSYVVHWVRQAPGKGLEWVAVISYDGDNKFYADSVKGRFTISRDNSKNTLYLQMNSLRTEDTAVYYCARGRNYYYYYGLDVWGQGTTVTVSS
# VL: DIVMTQTPLSLSVTPGQPASISCKSSQSLLYSDGKTYLYWYLQKPGQPPQILIFEVSNRFSGVPDRFSGSGSGTDFTLKISRVEAEDVGVYYCMQSIKLPLTFGGGTKVEIK
# B8: 11B12-11F8-SG (antibody, V domains shown)
# VH: QVQLVESGGGVVQPGRSLRLSCAASGFSFSSYVMHWVRQAPGKGLEWVAVISYDGSDKYYADSVKGRFTISRDNSKNTLFLQMNSLRPEDTAVYYCARGRGYRYGQSYYYGMDVWGQGTTVTVSS
# VL: DIVMTQTPLSLSVTPGQPASISCKSSQSLLYSSGKTYLYWYLQKPGQPPHLLIYEVSNRFSGVPKRFSGSGSGTDFTLKISRVEAEDVGVYYCMQSVKIPLTFGGGTKVEIK
# Key:
# Assay in all cases: FACS
# mouse CCR8 [1] = molecular target: T1, mouse CCR8
# human CCR8 [2] = molecular target: human CCR8 (human)
# human CCR8 [3] = molecular target: human CCR8 (human); remark: listed apart in the source
# mouse CCR8 [4] = molecular target: T1, mouse CCR8
# Sequence of human CCR8 (human) (chain, as listed by the source): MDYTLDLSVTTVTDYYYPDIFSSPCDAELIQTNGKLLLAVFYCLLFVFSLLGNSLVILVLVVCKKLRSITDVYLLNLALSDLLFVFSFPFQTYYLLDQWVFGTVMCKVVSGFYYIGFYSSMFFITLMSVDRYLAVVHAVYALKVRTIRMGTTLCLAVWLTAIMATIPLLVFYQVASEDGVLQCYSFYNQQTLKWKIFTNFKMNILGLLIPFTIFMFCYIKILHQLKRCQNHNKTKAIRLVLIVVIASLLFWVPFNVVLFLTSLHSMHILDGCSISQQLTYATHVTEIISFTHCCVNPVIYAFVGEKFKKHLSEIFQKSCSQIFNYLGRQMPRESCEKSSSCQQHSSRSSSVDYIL
Binder,EC50 (mouse CCR8 [1]) [µg/mL],EC50 (human CCR8 [2]) [µg/mL],EC50 (human CCR8 [3]) [µg/mL],EC50 (mouse CCR8 [4]) [µg/mL]
B1,0.053,0.015,–,–
B2,0.1,0.152,–,–
B3,0.084,0.144,–,–
B4,0.069,0.033,–,–
B5,0.055,0.051,–,–
B6,–,–,0.009,0.099
B7,–,–,0.132,0.163
B8,–,–,0.165,0.12

# — patent US20260337282 (published 2026)
